# Results from patent publication US7973137.
# “And” between values parts separate entries of the source, which are not always exact repeats. Identical values can stand only once.
# Columns and labels:
# [1] = target: SIY-loaded H-2 K^b on T2 K^b cells (murine) (UniProt P01901); assay: cell-based or functional assay
# [2] = target: SIY-loaded H-2 K^bm3 on T2 K^bm3 cells (murine); assay: cell-based or functional assay
# [3] = target: dEV-8-loaded H-2 K^bm3 on T2 K^bm3 cells (murine); assay: cell-based or functional assay
# [4] = target: p2Ca-loaded H-2 L^d (murine) (UniProt P01897); assay: cell-based or functional assay
# [5] = target: unloaded H-2 L^d on RMA-S L^d cells (no peptide added) (murine) (UniProt P01897); assay: direct flow cytometry on RMA-S L^d cells without added peptide
# [6] = target: H-2 L^d on RENCA cells, naturally loaded (murine) (UniProt P01897); assay: flow cytometry on RENCA cells cultured with 5-50 units/ml γ-IFN
# [7] = target: SIY-loaded H-2 K^bm3 on T2 K^bm3 cells (murine); assay: flow cytometry on peptide-loaded T2 K^bm3 cells
# [8] = target: QL9-loaded H-2 L^d (murine) (UniProt P01897); assay: direct flow cytometry on peptide-loaded RMAS-L^d cells
# [9] = target: QL9-loaded H-2 L^d (murine) (UniProt P01897); assay: flow cytometry on cells loaded with a titration of peptide; lower end of the titration
# [10] = target: p2Ca-loaded H-2 L^d (murine) (UniProt P01897); assay: as above
# [11] = target: p2Ca-loaded H-2 L^d (murine) (UniProt P01897); assay: flow cytometry on cells loaded with a titration of peptide; upper end of the titration
# [12] = target: QL9-loaded H-2 L^d (murine) (UniProt P01897); assay: direct flow cytometry on peptide-loaded RMA-S L^d cells, serial dilutions, detected with H57-FITC
# Sequence of QL9-loaded H-2 L^d (murine) (P01897 25-362): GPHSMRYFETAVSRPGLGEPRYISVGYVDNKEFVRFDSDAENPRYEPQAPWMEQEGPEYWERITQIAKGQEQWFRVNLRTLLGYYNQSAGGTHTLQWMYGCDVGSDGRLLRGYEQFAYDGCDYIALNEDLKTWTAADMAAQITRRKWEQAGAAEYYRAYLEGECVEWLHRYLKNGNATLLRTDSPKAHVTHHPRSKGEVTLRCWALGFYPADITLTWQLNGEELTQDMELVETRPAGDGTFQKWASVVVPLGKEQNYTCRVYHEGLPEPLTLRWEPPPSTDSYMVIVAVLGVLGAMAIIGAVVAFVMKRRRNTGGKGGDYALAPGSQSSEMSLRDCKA
# Sequence of p2Ca-loaded H-2 L^d (murine) (P01897 25-362): as above
# Sequence of 2C TCR on 2C CTL (A2KF29 whole entry): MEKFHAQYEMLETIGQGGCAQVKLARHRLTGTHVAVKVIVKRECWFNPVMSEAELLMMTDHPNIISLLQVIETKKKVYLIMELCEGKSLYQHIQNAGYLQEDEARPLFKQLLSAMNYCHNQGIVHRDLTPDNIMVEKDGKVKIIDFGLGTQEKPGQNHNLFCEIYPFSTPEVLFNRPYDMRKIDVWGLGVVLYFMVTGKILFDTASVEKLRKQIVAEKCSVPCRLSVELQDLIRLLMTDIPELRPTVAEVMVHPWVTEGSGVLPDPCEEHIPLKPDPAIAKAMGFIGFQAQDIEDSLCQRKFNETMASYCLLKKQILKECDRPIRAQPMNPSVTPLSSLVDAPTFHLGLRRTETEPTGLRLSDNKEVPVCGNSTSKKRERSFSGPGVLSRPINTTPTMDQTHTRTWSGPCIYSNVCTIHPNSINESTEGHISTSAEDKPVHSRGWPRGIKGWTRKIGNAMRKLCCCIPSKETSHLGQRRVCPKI
# Sequence of soluble divalent 2C TCR/Ig (A2KF29 whole entry, looked up, tested part not stated): as the sequence (A2KF29 whole entry) above
# Sequence of H-2 L^d on RENCA cells, naturally loaded (murine) (P01897 25-362): as the sequence (P01897 25-362) above
# Sequence of SIY-loaded H-2 K^b on T2 K^b cells (murine) (P01901 22-369): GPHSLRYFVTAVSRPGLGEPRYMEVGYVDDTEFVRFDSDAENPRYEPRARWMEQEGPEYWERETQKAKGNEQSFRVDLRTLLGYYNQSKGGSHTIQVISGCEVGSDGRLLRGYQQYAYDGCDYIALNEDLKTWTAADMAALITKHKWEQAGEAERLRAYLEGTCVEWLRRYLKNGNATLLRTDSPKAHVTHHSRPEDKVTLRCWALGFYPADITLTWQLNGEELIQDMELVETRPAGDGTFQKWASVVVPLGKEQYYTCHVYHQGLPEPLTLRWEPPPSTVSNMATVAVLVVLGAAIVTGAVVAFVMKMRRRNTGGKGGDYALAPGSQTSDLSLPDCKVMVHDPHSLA
# Sequence of unloaded H-2 L^d on RMA-S L^d cells (no peptide added) (murine) (P01897 25-309): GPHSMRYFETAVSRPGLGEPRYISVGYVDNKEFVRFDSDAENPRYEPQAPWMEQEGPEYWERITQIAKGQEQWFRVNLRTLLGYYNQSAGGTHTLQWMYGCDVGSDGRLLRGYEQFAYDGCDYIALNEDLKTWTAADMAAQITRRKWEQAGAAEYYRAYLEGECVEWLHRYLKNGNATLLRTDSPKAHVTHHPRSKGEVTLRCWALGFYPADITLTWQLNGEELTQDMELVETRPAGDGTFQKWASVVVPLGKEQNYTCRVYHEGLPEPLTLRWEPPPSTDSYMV
substance,measurement,setting,value
2C TCR on 2C CTL (from UniProt A2KF29),"2C CTL mediated lysis of peptide-loaded T2 cells (51Cr release), LD50 of the peptide",[1],10 ng/mL
same,"2C CTL mediated lysis of peptide-loaded T2 cells (51Cr release), LD50 of the peptide",[2],100 ng/mL
same,"2C CTL mediated lysis of peptide-loaded T2 cells (51Cr release), LD50 of the peptide",[3],0.5 ng/mL and 1 ng/mL
same,"2C CTL mediated lysis of p2Ca-loaded T2 L^d cells (51Cr release), LD50 of the peptide",[4],0.5 ng/mL
mAb 30.5.7 (antibody),fold increase of mean channel fluorescence (cells at 27° C. against cells at 37° C.),[5],5 fold
same,fold increase of serologically reactive H-2 L^d on γ-IFN treated cells over untreated cells,[6],5 to 6 fold
soluble divalent 2C TCR/Ig (from UniProt A2KF29),MCF,[7],36 MCF
same,MCF,[8],3000 MCF
same,MCF,[9],1 MCF
same,MCF,[10],1 MCF
same,MCF,[11],600 MCF
same,concentration at which binding was detected,[12],< 1 nM
